According to article PMC5972661, “ECD1 functions as an RNA-editing trans-factor of rps14-149 in plastids and is required for early chloroplast development in seedlings”:

Experiments:
MBP-ECD1 [1] = molecular target: T1, MBP-ECD1 (UniProt Q5G1T1 51-850); assay: EMSA; 25, 50, 100 nM protein, 10 nM probe; unlabeled same RNA (10-, 50-, 100-fold) used as competitor confirmed specificity; LightShift Chemiluminescent RNA EMSA Kit (Thermo 20158), 20 min at 25 °C, 6% Tris-borate gel in 0.5x TBE; binding buffer, salt and pH not stated; settings: protein: recombinant; tags: N-terminal MBP; primer adds HHHHHH-ENLYFQG (TEV site); label: 5' biotin; single strand
T1 sequence: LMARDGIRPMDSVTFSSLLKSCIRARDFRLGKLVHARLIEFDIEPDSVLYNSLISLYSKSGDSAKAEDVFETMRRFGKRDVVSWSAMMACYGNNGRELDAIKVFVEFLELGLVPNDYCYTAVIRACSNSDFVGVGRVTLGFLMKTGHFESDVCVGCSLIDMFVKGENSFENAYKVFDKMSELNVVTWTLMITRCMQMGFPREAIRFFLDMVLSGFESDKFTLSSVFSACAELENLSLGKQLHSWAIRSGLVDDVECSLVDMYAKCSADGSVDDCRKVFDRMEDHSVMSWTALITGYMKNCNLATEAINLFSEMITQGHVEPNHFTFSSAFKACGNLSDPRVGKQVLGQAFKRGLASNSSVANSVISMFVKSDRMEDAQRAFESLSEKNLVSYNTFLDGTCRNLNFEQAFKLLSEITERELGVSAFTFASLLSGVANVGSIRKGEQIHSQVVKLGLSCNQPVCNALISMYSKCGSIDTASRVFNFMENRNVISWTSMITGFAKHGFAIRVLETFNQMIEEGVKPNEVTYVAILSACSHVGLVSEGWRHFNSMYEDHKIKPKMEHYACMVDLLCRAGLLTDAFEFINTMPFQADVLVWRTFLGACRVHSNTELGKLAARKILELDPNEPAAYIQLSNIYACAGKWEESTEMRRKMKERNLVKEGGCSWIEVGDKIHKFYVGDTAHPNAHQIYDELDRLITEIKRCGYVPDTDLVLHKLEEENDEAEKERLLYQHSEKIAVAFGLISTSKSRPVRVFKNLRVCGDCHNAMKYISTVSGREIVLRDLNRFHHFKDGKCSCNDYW

MBP-ECD1 [2] = molecular target: T1, MBP-ECD1; assay: EMSA; 25, 50, 100 nM protein, 10 nM probe; LightShift Chemiluminescent RNA EMSA Kit (Thermo 20158), 20 min at 25 °C, 6% Tris-borate gel in 0.5x TBE; binding buffer, salt and pH not stated; settings: protein: recombinant; tags: N-terminal MBP; primer adds HHHHHH-ENLYFQG (TEV site); label: 5' biotin; single strand

B1: rps14-149 (ssRNA)
RNA: GAAAAUUCAUGGAAAAUUACAAUCCCCACCGCG
**Q.** Does B1 bind (MBP-ECD1 [1])?
**A.** Result: binds

B2: rps14-80 (ssRNA)
RNA: AAAUAUCAUUUGAUUCGUCGAUCCUCAAAAAAG
**Q.** Does B2 bind (MBP-ECD1 [2])?
**A.** Result: no binding
